Here are results for two molecules from PMC10567733, “C9orf72-catalyzed GTP loading of Rab39A enables HOPS-mediated membrane tethering and fusion in mammalian autophagy” (Nature Communications, 2023).

One assay addresses T1, VPS41-Flag (human, UniProt P49754 1-854).
T1 construct: VPS41, human, cloned from human cDNA (293T cells); also called V41; not shown: Flag, C-terminal, kept
T1 sequence (looked up): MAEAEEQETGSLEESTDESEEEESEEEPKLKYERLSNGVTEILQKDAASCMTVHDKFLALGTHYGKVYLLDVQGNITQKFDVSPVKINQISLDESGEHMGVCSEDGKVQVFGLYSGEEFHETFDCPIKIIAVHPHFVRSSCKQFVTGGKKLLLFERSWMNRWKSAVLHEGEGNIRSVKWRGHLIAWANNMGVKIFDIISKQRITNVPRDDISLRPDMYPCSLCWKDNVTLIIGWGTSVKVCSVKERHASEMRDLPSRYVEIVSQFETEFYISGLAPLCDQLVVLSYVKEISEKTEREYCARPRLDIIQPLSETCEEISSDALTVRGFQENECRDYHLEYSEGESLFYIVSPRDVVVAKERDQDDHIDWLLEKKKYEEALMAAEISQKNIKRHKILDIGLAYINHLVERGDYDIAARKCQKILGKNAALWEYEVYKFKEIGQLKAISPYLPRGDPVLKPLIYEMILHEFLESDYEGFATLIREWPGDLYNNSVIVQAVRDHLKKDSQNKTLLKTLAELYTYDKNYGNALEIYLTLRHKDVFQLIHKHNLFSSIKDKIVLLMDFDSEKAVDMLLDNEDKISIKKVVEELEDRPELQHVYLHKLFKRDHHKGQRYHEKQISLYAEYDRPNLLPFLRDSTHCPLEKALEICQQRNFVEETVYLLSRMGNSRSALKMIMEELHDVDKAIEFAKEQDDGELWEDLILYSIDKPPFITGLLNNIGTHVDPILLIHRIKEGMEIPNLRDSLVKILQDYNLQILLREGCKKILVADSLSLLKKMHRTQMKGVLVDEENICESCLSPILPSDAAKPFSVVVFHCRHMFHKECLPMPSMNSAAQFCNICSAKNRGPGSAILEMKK
Put plainly: pull-down; Glutathione Sepharose beads bound with GST, GST-Rab39A or GST-Rab39B, incubated with the purified protein for one hour, washed, boiled, immunoblot. The settings on record: both partners purified. On the technique in general: Immunoblotting shows a protein as a band on a membrane.

The target in the next assay is T2, Myc-C9orf72 (human, UniProt Q96LT7 1-481).
T2 construct: C9orf72, human, cloned from human cDNA; source: E. coli BL21 (DE3), purified (Glutathione Sepharose, eluted by TEV cleavage or GSH); not shown: Myc, N-terminal, kept
T2 sequence (looked up): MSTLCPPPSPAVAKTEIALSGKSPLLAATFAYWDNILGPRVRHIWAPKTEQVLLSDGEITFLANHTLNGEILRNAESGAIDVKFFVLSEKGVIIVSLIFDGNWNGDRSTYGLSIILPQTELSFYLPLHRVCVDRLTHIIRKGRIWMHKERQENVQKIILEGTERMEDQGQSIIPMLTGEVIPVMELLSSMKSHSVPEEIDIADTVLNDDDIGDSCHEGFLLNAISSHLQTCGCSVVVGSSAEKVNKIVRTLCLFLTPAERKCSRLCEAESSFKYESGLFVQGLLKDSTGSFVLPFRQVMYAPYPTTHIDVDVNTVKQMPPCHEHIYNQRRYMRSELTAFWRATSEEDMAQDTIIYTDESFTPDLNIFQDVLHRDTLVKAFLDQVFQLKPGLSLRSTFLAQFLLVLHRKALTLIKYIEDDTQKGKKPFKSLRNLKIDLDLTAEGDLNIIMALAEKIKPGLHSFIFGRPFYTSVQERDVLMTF
Described as above. The following applies: both partners purified.

B1: GST-Rab39A (natural protein, human, UniProt Q14964 1-217, looked up)
chain: METIWIYQFRLIVIGDSTVGKSCLLHRFTQGRFPGLRSPACDPTVGVDFFSRLLEIEPGKRIKLQLWDTAGQERFRSITRSYYRNSVGGFLVFDITNRRSFEHVKDWLEEAKMYVQPFRIVFLLVGHKCDLASQRQVTREEAEKLSADCGMKYIETSAKDATNVEESFTILTRDIYELIKKGEICIQDGWEGVKSGFVPNTVHSSEEAVKPRKECFC
notes: Rab39A, human, cloned from human cDNA; unprenylated; also called GST-R39A; purified Rab39A; source: E. coli BL21 (DE3), purified (Glutathione Sepharose); not shown: GST, N-terminal, kept
As for B1, the binding result with VPS41-Flag and in the assay with Myc-C9orf72 was “binds” each time.

B2: GST-Rab39B (natural protein, human, UniProt Q96DA2 1-213, looked up)
chain: MEAIWLYQFRLIVIGDSTVGKSCLIRRFTEGRFAQVSDPTVGVDFFSRLVEIEPGKRIKLQIWDTAGQERFRSITRAYYRNSVGGLLLFDITNRRSFQNVHEWLEETKVHVQPYQIVFVLVGHKCDLDTQRQVTRHEAEKLAAAYGMKYIETSARDAINVEKAFTDLTRDIYELVKRGEITIQEGWEGVKSGFVPNVVHSSEEVVKSERRCLC
notes: Rab39B, human, cloned from human cDNA; unprenylated; also called GST-R39B; purified Rab39B; source: E. coli BL21 (DE3), purified (Glutathione Sepharose); not shown: GST, N-terminal, kept
On to B2, for which the binding result in the assay with VPS41-Flag and with Myc-C9orf72 was “binds” throughout.
